Assay results taken from the DeepSol protein solubility set.

Test: soluble on expression in E. coli; label from the status in PepcDB or PDB records

| Sequence | soluble on expression in E. coli |
| --- | --- |
| MGSDKIHHHHHHMRKITLRSKLDGREIVFEENQNLFDIAREYQKYYRYKILAARVNNRIIELFRTPDRSGELEFLDLTDPDGLRIYQRGLVFLASLAVRKLNSEWRLKVLHSLGKGIYCEIYKGNELIVPDQNQVFAIKDKMRELVEKDLPIEKRTFYKDEAREILMKEGLVKTVNLFKYRKKRTVKLYHCDGFWAYFYGYLPPSTGRIDVFDVQPYNQGLVLVHPDPKTRELPVIHMPKLSQVFLEYARWLNVLELEYVSDLNDIIARGERHVADLMLLSEALHEKKISDIADEIAKDKRKRLILIAGPSSSGKTTFAKRLSLQLRVNGLKPVAISLDDYFVDREKTPRDENGNYDFDSIEALDIELFNRNLQDLLAGKEVVLPKFNFKTGKRMRGPTLKLEKDNIIIVEGIHGLNERLTASIPKEQKFKIYVSALTQLNIDDHNRVTTTDTRLIRRIVRDYKFRGHTAYDTLKMWPNVRKGEERNIFPFQEEADVMFNSALVYEIPVLRIFAEPLLVQVPEDVPEYSEALRLLKLLDFFLPITNIEDIPDKSILREFIGRSIFKY | not soluble |
| MTWPAFSLGVWGYPERMDPRVPPGQFVTERFPILTYGETPKVAKEAWRLEVTGLVETPLVLTYEDLLARPQVELTRDFHCVTRWSRLDVTWKGVRTRDLLEEARPRPEAVAALVESYGGYTTNLLLEDLLREDVLLAHTLFGKPLPPERGGPVRLLVPHLYAWKSAKWVRRIVLLDHLELGFWERLGYHWRGDPWKEERFQEGPVPAHRIRFAARNKPGR | soluble |
| MGSDKIHHHHHHMKRCPNCGCRGQAAFPEHVPGQVQYGPRLHAFTTLLNVGHFIPLERVTQLTDALFGASISDGTVALNINLASERLEPFEDDLKTGLRQQAVLHADETGAKVNGKLNWFHVACFARGTLYTLHEKRGYAALEAAGVLTDFTGVVVHDAWSTYFRLPGEHALCNAHLLRELRKLDEHDRQPWAGELRRALQQVYHAQKTGTLTDEQRAVFYTRFDELVLAGLEANPVQEPVPKRRGKPKQLPGRNLALRCQQHRAAMLLFLERADVPFDNNQAERDIRMACVKRKVSGGFRSEVGGQAFCRVRSFISTLQKQGLSVWTGLVDVFRGVLPKLDFSC | not soluble |
| MGSDKIHHHHHHMCLVVAARWPSRLVSSVKEDKMKPSTSRLTLLAGILGLPMALCLPLAAQAQSNQWQVNGFIGQGYISADGSEFIVGESGDTFDVTEAALHLSWMPDEHFRVAGAARYRQWGNLDESGLSADYLFAEYKFILDQGYVGARGGLFKSEAGFYTSTRDVSFTRPGILLPQSVYSDYLRDALLHITGGELFGGHPLLDGSLEWHLTLGDAQTSDDLTRNVVGSEEFGRFDADGYWGADLEYQDDSLRLGLTYFDAKSRYQSHLGGPFADGSLRSKHWIVSAQYRINFLEFTGEYLHWDRYVGGVFVPPELGIYEVRGYGYYLDVRGYLPGDVEVFVRYDHQVQDEKDPDGDKLAERGLPGYFGYAHDWTIGTRWLPAKDWMVAAEYHKVRGAAWVTPILLPNPAVQDKDWSLFAIEISYKFQW | not soluble |
| MSLKITAADVVVTSPGRNFVTLRITTEDGLTGLGDATLNGRELAVEAYLREHVAPLLLGRDAHAVEDTWQYLYRGAYWRRGPVTMAAVAAVDMALWDIKGKAAGMPVYQLLGGACRTGALAYGHASGRDIPELLDSVREHLADGFRAVRIQSGIPGLDSVYGVAASAAGDGDRYDYEPARRTGAAHPRPTEETWDTRAYLRHMPTVFEAVRHTFGPELPLLHDGHHRMTPIQAARLGKDLEPYDLFWLEDATPGEDQGALRLIREHTTTPLAIGEVFNSVHDYTTLLQERLIDYVRSAVTHTGGITAVRKLLDMAAVYGIKSGMHGPTDISPVGMAAALHLDLAVHNFGIQEYMRHAPDTLEVFRTSYRFEDGLLHPGEAPGLGVELDDGAAARFPYEPAYLPVNRLSDGTVHDWEGHHHHHH | not soluble |
| MYNVIGVRFKKAGKIYYFDPNGFHIEHDSCVIVETVRGVEYGQVVIANKQVDEHDVVLPLRKVIRVADDRDLLIVEENKQEALSAFDICQKKVIEHGLDMKLVDVEFTFDRNKVIFYFTADGRVDFRELVKDLASIFKTRIELRQIGVRDEAKMLGGIGPCGRMLCCSTFLGDFEPVSIKMAKDQNLSLNPTKISGLCGRLMCCLKYENDEYETAKEQLPDIGEMITTANGPAKVVGLNILERVLQVELINREKVIEYTWEELLEEGVVSAQTTDLEHHHHHH | not soluble |
| MSEKQSNEQVEAFLNKESQWQEEYKYLRALIFNETELEEAYKWMHPCYTLNNKNVVLIHGFKNYVALLFHKGAILEDKYHTLIQQTEKVQAARQLRFENLTEIQARTEEIKYYLAEAIKAEKAGKKVEMKKTEEYVIPKELEAKFEEMPQLESSFYKLTPGRQHQYIYHIGQAKRSETKQKRVEKYINQILEGKGMHDK | not soluble |
| MRRAELAGLKTMAWVPAESAVEELMPRLLPVEPCDLTEGFDPSVPPRTPQEYLRRVQIEAAQCPDVVVAQIDPKKLKRKQSVNISLSGCQPAPEGYSPTLQWQQQQVAQFSTVRQNVNKHRSHWKSQQLDSNVTMPKSEDEEGWKKFCLGEKLCADGAVGPATNESPGIDYVQIGFPPLLSIVSRMNQATVTSVLEYLSNWFGERDFTPELGRWLYALLACLEKPLLPEAHSLIRQLARRCSEVRLLVDSKDDERVPALNLLICLVSRYFDQRDLADEPSLEHHHHHH | soluble |
| MLGIVIATHGALSDGAKDAATVIMGATENIETVNLNSGDDVQALGGQIKTAIENVQQGDGVLVMVDLLSASPYNQAVLVINELEPALQKKIFVVSGTNLPMVLEAINHQLLGTPIAEAAQAIVAQGKESVQAWDISMTSFEDEEDEDDDF | soluble |
| MGSDKIHHHHHHMHSHHPISHDVVISGAGPVGLFLACELRLAGLSVLILEKAEDPRSPLKRLPFGMRGLSAPTIEAFHRRDLLDAIAPPTTKDGSGKLVAAHWMQQPRRPGGHFAGIQFHLDAVDSSKWPYRLPGPAGTSMAVEMEQLETMLATRATAMGVEIRRGLGVEIFDQSDEDVTIRAGGEIFRARWLVGCDGGRSTVRKLGGFAFTGTDAEFTGYSVEVEIADPDALSPGRHYTPTGMYTYSRPGTIAMVEFDGATFHRTEPITLEHVQAVLRRVSGTDVTLTALRLATTWTDRAYQASAYRNGRVLLAGDAAHIHSPLGGQGLNLGIGDAMNLGWKLAATIRGDAPAGLLDSYFDERHPVGAQILDWSRAQVALMRPSRSSRALEAIIRDLIDTRDGATYFAERVWGVSLRYDVGGSHPLVGRSAPDFELADGTRPGERLRTGQALLLDFAARPALQALASRWSGRIAYVAEDARERLGLSALLVRPDGVVAWAADGEPDLEGAAQAASRWFGEPGQVAAYAKGTV | not soluble |
| MAHHHHHHSLKNTLGRQFSRATETYEKWAVPQRKSAKILVEFVKPSGLVLDLGCGTGFISEFVNDCEVVGLDISEGMAKAYREKFRKVVIGNAENLPFKDRSFDFVLSNFSLHWSDWRKSIREALRVCKNFVGVAIPVYGSVSFSEFPFPKAEEILEEFKPQEFKIINLEIPFRGMELIKFFHYTGTANFTGKKNFKTKRELIKLSKDLEKEYFKVLFLKLKSRAFEG | soluble |
| MVASHSFEASILAYVLATELKRKGIEINPEHSALIALFHDAGETLLGDLPKWATSRINKRDAEVEAFDELGIGKELFLELKDLNTNEAKVAKLSDRLSTY | soluble |
| MRHLRFENLTEEQLKRLAKILTENLKGGEVVILSGNLGAGKTTFVKGMIRAIGLDEKMVKSPTFTLMNVYPGLKTIYHLDLYRLQDTDFLSLDVEDILEDEDGIMVVEWGDLFDGFWPEDSIKVKIEIADESHRNVEILIPEEVNFLVEKIERYRKELQNT | soluble |
| MYIGIDLGTSGVKVILLNEQGEVVAAQTEKLTVSRPHPLWSEQDPEQWWQATDRAMKALGDQHSLQDVKALGIAGQMHGATLLDAQQRVLRPAILWNDGRCAQECTLLEARVPQSRVITGNLMMPGFTAPKLLWVQRHEPEIFRQIDKVLLPKDYLRLRMTGEFASDMSDAAGTMWLDVAKRDWSDVMLQACDLSRDQMPALYEGSEITGALLPEVAKAWGMATVPVVAGGGDNAAGAVGVGMVDANQAMLSLGTSGVYFAVSEGFLSKPESAVHSFCHALPQRWHLMSVMLSAASCLDWAAKLTGLSNVPALIAAAQQADESAEPVWFLPYLSGERTPHNNPQAKGVFFGLTHQHGPNELARAVLEGVGYALADGMDVVHACGIKPQSVTLIGGGARSEYWRQMLADISGQQLDYRTGGDVGPALGAARLAQIAANPEKSLIELLPQLPLEQSHLPDAQRYAAYQPRRETFRRLYQQLLPLMA | soluble |
| MGSDKIHHHHHHMEDYEGKFSPSELKLKGIHTSTTFWTVGMIVQQYKNGHLVIPKIQRGYVWNEEKARRFIMSLLQGFPIPPIFIIELSGKFYVVDGQQRIRTILWFLGEDNELLEKLGPLRVPIKELAENYNEYGVTNLSEAIIKKIIFGNHPKEFNYKYFTKDFRQYFESLSIPVQHISISSGKEYILTDIFLRINQGSVKLSAMELWRVYYGKDIEEYFHKLNELARYTVAKIYEVSNGKISRQKLERFRIDEFILTFDVLINGLITPPNYIPKDAKLGAVIFSQKTTLKKVKIFVLENRRKVFKNNKGELKKFLDYLEREYKEILKMITYVLGEFTFRRPTIGNECQYALIRPSGNDINEAVFLYEVAIFKLLKDNGHSELIYENKDFIKHVILTSLIENDELFSRSTSTFRSVANKLELAKLTYKKIITKEDNITKDNLKRLLYEKFRASRVSNPVCPYCKEPISDISVADLAHIRPLAFGGQTYIHNLTLAHSTCNRRFGVRDISQYINRC | not soluble |
| MGSDKIHHHHHHMNYVKSKQRVADHGEVFTPAWLVEAMIDLVKDETERIDARFLEPACGSGNFLVPILQRKLAAVERKFGKSNFEKQHYALFAVMCTYGIELLADNIAECRANMLEIFADYLTLDESDELYRAAIYVLSQNLVHGDALKMRTSDGQPIAFAEWGYLGKGKFQRRDFRLDSLAMSSTFSVEGSLFAHLGKHEIFTPTRTYPPMTVSELAARAAEANL | not soluble |
| MGSDKIHHHHHHMERVLIIGALTFVGYHLVNKMIAEEVEVYGLDFDEFDSMTKINEEKLLLIGRNALFTYYSIRDEDGWRSVEEEKFDAVYFCLYEPNQQRGFRNERVILQYLKRMIRLCEEHKVKLNLISSIEVGNADESENKRLFSKVEEGLKKGEVQYSVFRVPTLYGPWQPSFMMYHQLMLSELGEKECHYAGEENGSDLLYVEDVCEYLWENGMNEEHLGIYNLLSGKKSLWKKGMNLLRAEDKVNKENAEERDGAAEDILIKRNTPLEYGLNKQLAHMKKYKELYEG | not soluble |
| MELFKDIKNLGKLVRLERIFNRESEKTVIVPMDHGVSNGPIKGLIDIRKTVNDVAEGGANAVLLHKGIVRHGHRGYGKDVGLIIHLSGGTAISPNPLKKVIVTTVEEAIRMGADAVSIHVNVGSDEDWEAYRDLGMIAETCEYWGMPLIAMMYPRGKHIQNERDPELVAHAARLGAELGADIVKTSYTGDIDSFRDVVKGCPAPVVVAGGPKTNTDEEFLQMIKDAMEAGAAGVAVGRNIFQHDDVVGITRAVCKIVHENADVEEALKEIRKK | soluble |
| FFETIHPDDRERIRSEIETAGDSGEPNSVEFRFVEPDGTVVWVVGQAVPVTDDEGNLTERVVGIATDITDLKQR | not soluble |
| MSLDKMKAITFFDLDGTLLDGTSQITPEITAAVAALKDNQILPLIATGRTLCEIQPIMKASGIDSAIVMNGQFIHYEGKTIYSDEFTTEECVSLHEHVKQRGHELAFYNERRIFCTGHTGTVKQAYDYIHSAVPEIDPTGYENDAVNMMLVLSQHGDDDEYYYERFPELTFYRNGPFSIDIVRKGVSKGSGVKNLFNTLGLNGIPTYAFGDGINDLALFEACDYGIAMGNAREELKEKATFISTKNTENGIVNGLKKFDLLEGHHHHHH | soluble |
